Data from publication PMC3213134, “A Non-Motor Microtubule Binding Site Is Essential for the High Processivity and Mitotic Function of Kinesin-8 Kif18A” (PLoS ONE, 2011).

Molecular target: the molecule itself
Assay: photobleaching step counting (TIRF microscopy, streaming mode); single GFP-tagged motors moving on immobilised microtubules, ATP reduced to 15 µM, 100 ms exposure for 1200 frames; only one and two step bleaching events seen

Protein	stoichiometry N
His-Kif18A^FL-GFP (natural protein, human, UniProt Q8NI77 1-898, looked up, also called full-length Kif18A^FL-GFP; not shown: His6, N-terminal, kept; GFP, C-terminal, kept) MSVTEEDLCHHMKVVVRVRPENTKEKAAGFHKVVHVVDKHILVFDPKQEEVSFFHGKKTTNQNVIKKQNKDLKFVFDAVFDETSTQSEVFEHTTKPILRSFLNGYNCTVLAYGATGAGKTHTMLGSADEPGVMYLTMLHLYKCMDEIKEEKICSTAVSYLEVYNEQIRDLLVNSGPLAVREDTQKGVVVHGLTLHQPKSSEEILHLLDNGNKNRTQHPTDMNATSSRSHAVFQIYLRQQDKTASINQNVRIAKMSLIDLAGSERASTSGAKGTRFVEGTNINRSLLALGNVINALADSKRKNQHIPYRNSKLTRLLKDSLGGNCQTIMIAAVSPSSVFYDDTYNTLKYANRAKDIKSSLKSNVLNVNNHITQYVKICNEQKAEILLLKEKLKAYEEQKAFTNENDQAKLMISNPQEKEIERFQEILNCLFQNREEIRQEYLKLEMLLKENELKSFYQQQCHKQIEMMCSEDKVEKATGKRDHRLAMLKTRRSYLEKRREEELKQFDENTNWLHRVEKEMGLLSQNGHIPKELKKDLHCHHLHLQNKDLKAQIRHMMDLACLQEQQHRQTEAVLNALLPTLRKQYCTLKEAGLSNAAFESDFKEIEHLVERKKVVVWADQTAEQPKQNDLPGISVLMTFPQLGPVQPIPCCSSSGGTNLVKIPTEKRTRRKLMPSPLKGQHTLKSPPSQSVQLNDSLSKELQPIVYTPEDCRKAFQNPSTVTLMKPSSFTTSFQAISSNINSDNCLKMLCEVAIPHNRRKECGQEDLDSTFTICEDIKSSKCKLPEQESLPNDNKDILQRLDPSSFSTKHSMPVPSMVPSYMAMTTAAKRKRKLTSSTSNSSLTADVNSGFAKRVRQDNSSEKHLQENKPTMEHKRNICKINPSMVRKFGRNISKGNLR	2
His-Kif18A^1-777-GFP (domain or fragment, human, UniProt Q8NI77 1-777, looked up, not shown: His6, N-terminal, kept; GFP, C-terminal, kept) MSVTEEDLCHHMKVVVRVRPENTKEKAAGFHKVVHVVDKHILVFDPKQEEVSFFHGKKTTNQNVIKKQNKDLKFVFDAVFDETSTQSEVFEHTTKPILRSFLNGYNCTVLAYGATGAGKTHTMLGSADEPGVMYLTMLHLYKCMDEIKEEKICSTAVSYLEVYNEQIRDLLVNSGPLAVREDTQKGVVVHGLTLHQPKSSEEILHLLDNGNKNRTQHPTDMNATSSRSHAVFQIYLRQQDKTASINQNVRIAKMSLIDLAGSERASTSGAKGTRFVEGTNINRSLLALGNVINALADSKRKNQHIPYRNSKLTRLLKDSLGGNCQTIMIAAVSPSSVFYDDTYNTLKYANRAKDIKSSLKSNVLNVNNHITQYVKICNEQKAEILLLKEKLKAYEEQKAFTNENDQAKLMISNPQEKEIERFQEILNCLFQNREEIRQEYLKLEMLLKENELKSFYQQQCHKQIEMMCSEDKVEKATGKRDHRLAMLKTRRSYLEKRREEELKQFDENTNWLHRVEKEMGLLSQNGHIPKELKKDLHCHHLHLQNKDLKAQIRHMMDLACLQEQQHRQTEAVLNALLPTLRKQYCTLKEAGLSNAAFESDFKEIEHLVERKKVVVWADQTAEQPKQNDLPGISVLMTFPQLGPVQPIPCCSSSGGTNLVKIPTEKRTRRKLMPSPLKGQHTLKSPPSQSVQLNDSLSKELQPIVYTPEDCRKAFQNPSTVTLMKPSSFTTSFQAISSNINSDNCLKMLCEVAIPHNRRKECGQEDLDSTFTICEDIK	2
